Results: patent publication US20180134781A1 (Regeneron, published 2018)

Tests used:
[1] = biological target: T1, hLDLR-mFc (negative control protein with the same mFc tag) (human, UniProt P01130 22-788); assay: BLI (Octet HTX), hLDLR-mFc captured on AMC sensor
T1 construct: also called Irrelevant control; not shown: mFc tag ('the same mFc tag', mouse IgG2a Fc)
Experimental: (§1) Binding of ANGPTL8 antibodies to human and monkey ANGPTL8 proteins was investigated using Bio-layer Interferometry with an Octet HTX biosensor platform (ForteBio, A Division of Pall Life Sciences). All experiments were performed at 25° C. in 10 mM HEPES pH 7.4, 150 mM NaCl, 0.05% v/v Surfactant Tween-20, and 1 mg/ml BSA with the reaction multiwell plate agitated at 1000 rpm. Approximately 1.6 nm of human ANGPTL8 produced with a C-terminal mouse IgG2a Fc tag (hANGPTL8-mFc; SEQ ID NO: 340) or cynomolgus monkey ANGPTL8 produced with a C-terminal mouse IgG2a Fc tag (MfANGPTL8-mFc; SEQ ID NO: 341) was captured onto anti-mFc (AMC) Octet biosensors by submerging the sensors into wells containing 10 μg/mL of each protein for 4 minutes. Under the same conditions a negative control protein with the same mFc tag (hLDLR-mFc) was also coupled to the AMC sensor. All four sensors, […] and one blank, were then submerged into wells containing 100 nM of different ANGPTL8 monoclonal antibodies or an isotype control for 4 minutes.

[2] = biological target: T2, monkey ANGPTL8 expressed with C-terminal mouse IgG2a Fc tag (cynomolgus monkey); assay: BLI (Octet HTX), MfANGPTL8-mFc captured on AMC sensor
T2 construct: also called MfANGPTL8-mFc; mfANGPTL8-mFc
T2 chain: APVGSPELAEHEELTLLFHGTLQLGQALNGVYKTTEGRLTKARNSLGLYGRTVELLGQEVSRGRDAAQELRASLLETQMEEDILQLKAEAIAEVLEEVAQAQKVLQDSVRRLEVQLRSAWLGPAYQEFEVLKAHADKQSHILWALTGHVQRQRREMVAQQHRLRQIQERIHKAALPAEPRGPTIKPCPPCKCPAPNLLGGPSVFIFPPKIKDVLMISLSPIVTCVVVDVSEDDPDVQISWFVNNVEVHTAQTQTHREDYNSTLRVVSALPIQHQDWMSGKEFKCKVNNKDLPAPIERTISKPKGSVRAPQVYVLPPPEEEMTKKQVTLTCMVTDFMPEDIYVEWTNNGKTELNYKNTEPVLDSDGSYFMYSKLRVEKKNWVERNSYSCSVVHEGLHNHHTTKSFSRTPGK
Experimental: as §1

T1 sequence (P01130 22-788): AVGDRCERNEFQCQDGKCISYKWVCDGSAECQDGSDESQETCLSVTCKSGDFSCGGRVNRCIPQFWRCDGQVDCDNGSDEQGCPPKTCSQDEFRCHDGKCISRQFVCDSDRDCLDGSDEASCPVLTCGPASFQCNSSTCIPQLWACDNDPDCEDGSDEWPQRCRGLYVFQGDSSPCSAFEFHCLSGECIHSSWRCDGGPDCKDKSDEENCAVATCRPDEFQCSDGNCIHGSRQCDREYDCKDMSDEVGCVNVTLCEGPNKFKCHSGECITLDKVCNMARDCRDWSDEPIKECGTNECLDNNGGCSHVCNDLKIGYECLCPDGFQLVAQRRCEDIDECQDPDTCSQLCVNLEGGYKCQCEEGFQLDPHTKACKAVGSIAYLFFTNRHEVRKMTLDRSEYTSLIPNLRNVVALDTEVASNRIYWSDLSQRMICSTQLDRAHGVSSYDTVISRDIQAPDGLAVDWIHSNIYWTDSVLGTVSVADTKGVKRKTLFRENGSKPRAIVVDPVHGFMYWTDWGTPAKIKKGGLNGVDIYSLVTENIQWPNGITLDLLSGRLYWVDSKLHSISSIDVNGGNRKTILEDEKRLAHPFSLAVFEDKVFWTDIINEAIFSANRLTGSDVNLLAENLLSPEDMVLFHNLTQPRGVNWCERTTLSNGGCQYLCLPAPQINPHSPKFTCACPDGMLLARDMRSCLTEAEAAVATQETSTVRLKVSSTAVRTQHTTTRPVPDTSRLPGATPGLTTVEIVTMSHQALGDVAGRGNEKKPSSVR

B1: H4H15323P (antibody, human IgG4, V domains shown)
VH: EVQLVESGGGLVQPGGSLRLSCAASGFTFSSYAMTWVRQAPGKGLEWVSAISGSGGSTYYTDSVKGRFTLSRDNSKNTLYLQMNSLRAEDTAVYYCAKSDYSNTIYWYYGMDVWGQGTTVTVSS
VL: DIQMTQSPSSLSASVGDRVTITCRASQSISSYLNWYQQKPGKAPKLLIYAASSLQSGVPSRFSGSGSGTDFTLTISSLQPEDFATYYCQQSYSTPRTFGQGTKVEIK
notes: human IgG4 Fc (H4H prefix)
binding result [1]: no binding (tested: 0.03 nm at 100 nM mAb)

B2: H4H15346P (antibody, human IgG4, V domains shown)
VH: EVQLVESGGGLVQPGGSLRLSCAASGFTFSNYAMSWVRQAPGKGLEWVSTISDTGGSTYYADSVKGRFALSRDNSRNTLYLQMNSLRAEDTAVYYCAKEGPPDYWGQGTLVTVSS
VL: EIVLTQSPATLSLSPGERATLSCRTSQSVSIYLAWYQQKPGQAPRLLIYDASKRATGIPARFSGRGSGTDFTLTISSLEPEDFAVYYCQQRSNWPLTFGQGTRLEIK
notes: human IgG4 Fc (H4H prefix)
binding result [1]: no binding (tested: 0.03 nm at 100 nM mAb)
binding result [2]: no binding (tested: background 0.03 nm at 100 nM mAb)

B3: H4H15334P (antibody, human IgG4, V domains shown)
VH: QVQLQESGPGLVKPSQTLSLTCTVSGGSINSGGYYWNWIRQHPGKGLEWIGYIYYSGSTYFNPSLKSRVTISIDTSKNQFSLKLSSVTAADTAVYYCAREGIYAFDYWGQGTLVTVSS
VL: DIQMTQSPSSLSASVGDRVTITCRASQGIRNDLGWYQQKPGKAPKRLIYSASSLQSGVPSRFGGSGSGTEFTLTISSLQPEDFATYYCLQHNSYPWTFGQGTKVEIK
notes: human IgG4 Fc (H4H prefix)
binding result [1]: no binding (tested: 0.03 nm at 100 nM mAb)
binding result [2]: no binding (tested: background 0.03 nm at 100 nM mAb)

B4: H4H15314P2 (antibody, human IgG4, V domains shown)
VH: QVQLVQSGAEVKKPGASVKVSCKASGYTFTSYDINWVRQATGQGLEWMGWMNPNGDNTGYAQKFQGRVTMTGDTSISTAYMELSSLRSEDTAVYYCAREGIWGFDPWGQGTLVTVSS
VL: DIQMTQSPSSLSASVGDRVTITCRASQDIRNDLGWYQQKPGKAPKRLIYAASSLQSGVPSRFSGSGSGTEFTLTISSLQPEDFATFYCLQHNTFPRTFGQGTKVEIK
notes: human IgG4 Fc (H4H prefix)
binding result [1]: no binding (tested: 0.03 nm at 100 nM mAb)
binding result [2]: no binding (tested: background 0.03 nm at 100 nM mAb)

B5: H4H15350P2 (antibody, human IgG4, V domains shown)
VH: EVQLVESGGGLVQPGGSLRLSCAASGFTFSSFRMTWVRQAPGKGLEWVANIKQDGSEKYYVDSVKGRFTISRDNAKNSLYLQMNSLRAEDTAVYYCARGGGIAAYWGQGTLVTVSS
VL: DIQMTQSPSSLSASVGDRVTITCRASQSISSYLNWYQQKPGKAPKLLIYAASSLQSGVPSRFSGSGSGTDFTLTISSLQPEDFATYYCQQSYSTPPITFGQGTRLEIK
notes: human IgG4 Fc (H4H prefix)
binding result [1]: no binding (tested: 0.03 nm at 100 nM mAb)

B6: H4H15361P2 (antibody, human IgG4, V domains shown)
VH: EVQLVESGGGLVQPGRSLRLSCTASGFSFGDNAMGWVRQAPGKGLEWVSFIRRKASGGTTEYAASVKGRFTISRDDSKSIAYLQMNSLKTEDTGVYYCTRGGAVYGYWGQGTLVTVSS
VL: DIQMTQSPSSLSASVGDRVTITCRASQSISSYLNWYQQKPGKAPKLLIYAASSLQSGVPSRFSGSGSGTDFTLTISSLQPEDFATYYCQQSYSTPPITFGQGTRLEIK
notes: human IgG4 Fc (H4H prefix)
binding result [1]: no binding (tested: 0.03 nm at 100 nM mAb)

B7: H4H15345P (antibody, human IgG4, V domains shown)
VH: EVQLVESGGGLVQPGGSLRLSCAASGFTFSTYAMSWVRQAPGKGLEWVSVISGSFISTYYADSVKGRFTISRDNSKNTLYLQMTSLRAEDTAVYYCAKNSPFDYWGQGTLVTVSS
VL: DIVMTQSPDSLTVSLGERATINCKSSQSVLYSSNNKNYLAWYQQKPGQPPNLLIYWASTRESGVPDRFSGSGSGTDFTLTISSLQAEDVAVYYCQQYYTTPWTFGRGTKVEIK
notes: human IgG4 Fc (H4H prefix)
binding result [1]: no binding (tested: 0.03 nm at 100 nM mAb)

B8: H4H15354P2 (antibody, human IgG4, V domains shown)
VH: QVQLVESGGGVVQPGRSLRLSCTASGFTFNNYGIHWVRQAPGKGLEWVAVISYDGSNKFYAESVRGRFTISRDNSRNTLFLQMISLRGEDSAVYYCAKDRPYYDILTAHYPSDYYFYAMDVWGHGTTVTVSS
VL: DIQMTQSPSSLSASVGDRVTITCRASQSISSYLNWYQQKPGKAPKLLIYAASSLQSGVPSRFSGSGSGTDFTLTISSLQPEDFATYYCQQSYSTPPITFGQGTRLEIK
notes: human IgG4 Fc (H4H prefix)
binding result [1]: no binding (tested: 0.03 nm at 100 nM mAb)
binding result [2]: no binding (tested: background 0.03 nm at 100 nM mAb)

B9: H4H15318P (antibody, human IgG4, V domains shown)
VH: QVQLVESGGGVVQPGRSLRLSCTASGFTFGNFGIHWVRQAPGKGLEWVAVISYDGTDKFYADPVKGRFIISRDNSMNILYLQMNSLRAEDTAVYYCAKDGEMELRGYYYYYGMDVWGQGTTVTVSS
VL: DIQMTQSPSSVSASVGDRVTITCRASQGINTWLAWYQQKPGTAPKLLIFAASSLESGVPSRFSGSGFGTDFTLTISSLQSEDLATYFCQQVHSPPYTFGQGTKLEIK
notes: human IgG4 Fc (H4H prefix)
binding result [1]: no binding (tested: 0.03 nm at 100 nM mAb)
